Common to all, as to assay: FP, FITC-Ahx peptide
One test concerns the target T1, SPATA2_PIM (Homo sapiens (Human), UniProt Q9UM82).
T1 chain: DVDLYTDSEPR

The target in a further test is T2, p97_PIM (Homo sapiens (Human), UniProt P55072).
T2 chain: TEDNDDDLYG

The target of a further test is T3, OTULIN_PIM (Homo sapiens (Human), UniProt Q96BN8).
T3 chain: AEHEEDMYRAADEIEKEKE

Among the data in PMC5031558 (2016) are Kd values, retold here.

For orientation: Kd means the free concentration of one partner at which half of the binding sites on the other are occupied at equilibrium, for simple one-to-one binding. Read a low Kd as tighter binding.

B1: PNGase_PUB (protein)
chain: GSASPAVAELCQNTPETFLEASKLLLTYADNILRNPNDEKYRSIRIGNTAFSTRLLPVRGAVECLFEMGFEEGETHLIFPKKASVEQLQKIRDLIAIER
On to B1, for which the Kd was above 100 µM with SPATA2_PIM and 2.1 µM with p97_PIM.

B2: SPATA2_PUB (protein)
chain: MDTKFKDDLFRKYVQFHESKVDTTTSRQRPGSDECLRVAASTLLSLHKVDPFYRFRLIQFYEVVESSLRSLSSSSLRALHGAFSMLETVGINLFLYPWKKEFRSIKTYTGPFVYYVKSTLLEEDIRAILSCMGYTPELGTAYKLRELVETLQVKMVSFELFLAKVECEQMLEIHSQVKDKGYSELDIVSERKSSAEDVRGCSDALRRRAEGRE
With B2, the Kd in the test with OTULIN_PIM, in the test with SPATA2_PIM and with p97_PIM was above 100 µM throughout.

B3: UBXN6_PUB (protein)
chain: STDPVAASIMKIYTFNKDQDRVKLGVDTIAKYLDNIHLHPEEEKYRKIKLQNKVFQERINCLEGTHEFFEAIGFQKVLLPAQDQEDPEEFYVLSETTLAQPQSLERHKEQLLAAE
On to B3, for which the dissociation constant Kd in the test with SPATA2_PIM is above 100 µM; with p97_PIM, 27.1 µM.

B4: HOIP_PUB (protein)
chain: MPGEEEERAFLVAREELASALRRDSGQAFSLEQLRPLLASSLPLAARYLQLDAARLVRCNAHGEPRNYLNTLSTALNILEKYGRNLLSPQRPRYWRGVKFNNPVFRSTVDAVQGGRDVLRLYGYTEEQPDGLSFPEGQEEPDEHQVATVTLEVLLLRTELSLLLQNTHPRQQALEQLLEDKVED
Regarding B4, the Kd in the test with SPATA2_PIM is 0.36 µM; with p97_PIM it was 10.2 µM.
